The nature of this data set: soluble on expression in E. coli; label from the status in PepcDB or PDB records.
On to “MSLEPYAAKAHEGYLRNLMLRYSERHEQLMVNIVTSWYDKALMQALKERLEAAMPEQQMTLLNNVTTRKNTVATGEQEYVISGDGYVTERLGDLDFRISANSFFQTNTRQAETLYDQIIAVGGITPEDTVYDLYCGTGTITLYLARHCKQAIGIEVVESAVKDAEMNAELNGLSNTVFFQADLKNFHAMQEALEPYAKPRIIVTDPPRAGMHPKALDTMLKLQPERIVYVSCNPDNLARDGKEIAARGYRMTSAQPVDMFPQTNHIETVACFERAEGHHHHHH”, for which the “soluble on expression in E. coli” value is “not soluble”. Consider “MSLEQGIAARKAEAESNASTKGESPDYPGQQVIWRLIQEAGESLRDELRTLAFTLHDHPEEAFEEVFATEEITKLLQNHGFEVQSGVYGVKTALETSFETPGYDPAQHPSIAILAEYDALPEIGHACGHNIIAAAGVGAFLAVTNMIKTAEVKGVDHLDFEGRIVLLGTPAEEGHSGKEYMIRNGAFDGIDASIMMHPFGFDLAEHVWVGRRTMTATFHGVSAHASSQPFMGKNALDAASLAYQGFGVLRQQMPPSDRLHAIITEGGNRPSIIPDTATMSLYVRSLLPEALKDISKRVDDVLDGAALMAGVGVEKQWDVHPASLPVRNNHVLARRWAKTQNLRGRTALSEGILPDTLAASTDFGNVSHLVPGIHPMVKISPENVALHTKEFAAYARTEEAIDAAVDAAIGLAQVAVDALADPQMLIDATLEFTNSGDVLKVGDYLAEGHHHHHH”, for which the “soluble on expression in E. coli” value is “soluble”. For “MSLESLFQHIIFTEHQAEESRRLMREVRSEITRCREKIKKATEELNEEKIKLESKVQQFFEKSFFLQLLKAHENALEKQYSEITNHRNMLLQTFEAIKKQMIEEEDKFIKEITDFNNDYEITKKRELLMKENVKIEISDLENQANMLKSEMKSMEHDSSQLNELQKQKSELIQELFTLQRKLKVFEDEENESICTTKYLEAEKIKISEKPQNDTECLRLKKELELYKEDDMESVYEALQTEIEFLELTLAQKDLQESK”, the “soluble on expression in E. coli” value was “not soluble”. “MSLESPQTQSEISIHQLVVGKPANDGNIPAQCELLRCSLQEGMDILLWRGHFARPETLQLHDDLGRINFSCILEGTSRFAIQGLRRHTDWELARNRHYITHTPDCRGSASYCGRFESITLSFSPETLALWVPDISAVIKNKIDSHCCCQQQRCNAETHLTAQALRHALMRMHGGFSHEQKPSTLWLQGQSLVMLSLVLDEHREDASCLSCHFNPMERQKLLRAKDLLLADLTQAPGVAELARESGLSVLKIKRGFRVLFNNSVYGLFQAERMQEARRRLANGNTSVMTVAADLGYANASHFSAAFQKQFGVTPSTFKRGEGHHHHHH”: the “soluble on expression in E. coli” value is recorded as “not soluble”. Turning to “MSLETYIHEVVAPKLVGRDPLEIDRISKDLTGYLGFRSTGAEMRGNSAVDIGLWDLFGKATNLPIAQLLGGFSRREIRTYNTCAGNTYMRDAKGQQTANYGIGGPRRDYDDLNGFLERADELAEDLLSEGITAMKIWPFDIAAEKSGGQYISGPDLRKALEPFEKIRKRVGDRIDIMVEFHSMWQLTPAIQIARALEPYATFWHEDPIKMDSLSSLKRYAAASRAPLCASETLATRWAFRDLMETDAAGVVMLDLSWCGGISEAKKISTMAEAWHLPVAPHDCTGPVVLAASTHLSLNAPNALVQESVRAYYKTWYADLTTQLPTVTNGMITIPPGAGHGVDLAPDLDRKFEVSRRSSQIEDEGHHHHHH”, the “soluble on expression in E. coli” value was “not soluble”.

For the sequence “MSLEYARRQALAREGLSAAGLDALIVTGPENIFYLCGQQTPGYYTFQALILPADGDPVFLIRQLEYFNFIANTFISDAVVYQDGEDPLALLVKLIESRGLASRRIAIDKRGWFLPIAVYEALQARLGTIGDGAGVIERFRAIKSPLEVEKLEKAAAYVDEGMRAGLAAVRVGATENDLVSAMLGSAIAAGSEYLGMEPLVSVGPRTGVPHGTWRRRAITDGDPAFLEMAACHDRYHAALMRSAWIGEPPREAVDMMKACQEALQVSLDTIRPGVACEVPHIACQKVIDRAGYTDNFKKRLGYSVGISFAPDWGEGAILSLNTGVKTELQPGMTFHLPPALRIYGRFTVGVSETIVVTETGYRALGSIDRNLLIVEGHHHHHH”, the “soluble on expression in E. coli” value was “soluble”. As to “MSLEYQWGFANISMNYLDWTRSTTHKSGDSSHKDDFAYIELEGGAGYSWGEMYGFFDLENPFNSKTAQPGDNQRYTFKTTGRYYLGDSGFNLYGHIYGTYSLPSAEGNDYSNFHEVNTLYGIGYNATVAGVWMKPFVALHYVDQTYYSGNNGYVVGWVAGYDFTAFDENFSITNWNELEFNRAERYAAGNGGRNGVNGALALWWTPIKQFTTGIQYRYAYNKLGEDFLQDGIVYSIKYNFEGHHHHHH”, the “soluble on expression in E. coli” value is on record as “not soluble”. With “MSLFFRDVIGQEEAKYRLIQEVSEGRIPHAQLFCGPEGVGKFPLALAYARYLSCTNRSDTDACGVCPSCVKFNKLVHPDVHFVFPVVKNGRSDDYIVEWRKLVLNNPYFTINHWLNEINAENAQAVIYTKESDEIMKKLSLKSSEGGFKITLLWLPEKMQQACANKLLKLLEEPPEKTIFLLVSEAPDLILQTILSRTQRFNLRKIEEECMAEALQSKYGVQQATSISIAHLANGNFIKALETIHLNEEGHHHHHH”, the “soluble on expression in E. coli” value was “soluble”. As for “MSLFFTFMRGVVRVILFVINGNAHYENKEKLPKDQNYVLVAPHRTWWEPLYLAVAGSPKKFSFMAKKELFKNPVLRFILKHANAFPVDREKPGPSAIKTPVKILKNSDLSLIMFPSGTRHSSELKGGVALIAKMGRVPIVPSVYQGPLTLKELFKRKKVTVRFGEPIDISDIKKMDKDGLAEVERRMQEAFDQLDKEIDPTFKYESTEEGHHHHHH”, the “soluble on expression in E. coli” value was “soluble”. On to “MSLFHPEISGEWGAVKGDNIELLLNVDLSNPSPAPILLETIKVKLAGVKIGETKRANIAIFSRKVTIDSIINLDNLTTALINHIKEKEESTVSVYAKLELFDVIPVEYSRDVNFQTDLLSYLKNLRVEPKIYSIGGIPLKTPGIEGMDAKWGRVSNDSIEIIGWLKLYNPNSFPIPVTGLSADLYMNSVNIGKGVILKGTVLQPNSRGEVKVKLVLDVDNFKEAFKTHITNGERSTIRADINLVVKVGGVEYEIPIKDIETTFETDILGSIKFGEGHHHHHH”, for which the “soluble on expression in E. coli” value is given as “soluble”. As to “MSLFQDNPLLAQLKQKIQETLPKKEGTIKASDKGFGFLEVDSKTSYFVPPPYMKKCMHGDKVVAFIRTENEREVAEPSELIEQSLTRFIGRVKLFKGKLNVAPDHPQLKKLSLKAKTKKGLNEADFQEGDWVVAHLVRHPLKGDDGFFVQISHKITDANDKIAPWWVTLAENDLPNSEPAGIDDWQLKDDADLVREDLTALPFVTIDGESTKDMDDALYAQQLPNGDFALTIAIADPTAYITPEDEMDKVARERGFTIYLPGRNIPMLPRDLADELCSLMENQVRPALCCSVTIRKDGVIGDDIRFFAANIKSHARLVYDHVSDWLETGSSEQWQPSEEIAQVVRDLYAFSQARANWRETHAVVFPDRPDYRFELSADNDVVAIHADMRRTANRLVEESMITANICAGKTLQTTFGFGVFNTHAGFKAEKMADVVELMAVNGAPNADAETLATVEGFAALRRWLATQETSYLDNRIRKYQSYSEIGNQPLPHFAMGLDVYATWTSPIRKYGDMINHRLLKAHILGKAPVQTPDETVGEELALHRKHHKIAERNVADWLYARTLADEPAKETRFQAEIFDINRPGMRVRLLENGAMAFIPGALILDNKERIECNGEDGTVLIDKEVVYKLGDVLEIVLTEVNQENRSLVGKPTQVFADLVSETQTSAEQPAEGAENNEPQVEGHHHHHH”, the “soluble on expression in E. coli” value is given as “soluble”. Next, “MSLFQSDLKLIVFQHGFFGERFVANLMNYPNSCPSYGACGIDGCTQCKEGLYNFSKNIIAVFSMPDPTTMPDFIENAEDFLPKVIPEADIAVAINLHPDVLAVMPEKLKGKVKALIVPVEEPRWCSPGLAKQIREKCDELGLEFAAPKPFCNLRPSEEHPTINRMIEEMRIGYPEFEIELLEDGKAYVRISRSQPCGCAYYIGVKLRGFDFSEVKEGKMRELWNVVAEAHHSYPCTASMERDNEYNETLLHVGGYIARHAVNRALGYEGDEDIPEHIKHIVLEGGSHHHHHH”: “soluble”; “MSLGASTNWDDHAIIIFGYPETIANSIILHFANFGEILEDFRVIKDFKKLNSKNMSKSPSLTAQKYPIYTGDGWVKLTYKSELSKSRALQENGIIMNGTLIGCVSYSPAALKQLASLKKSEEIINNKTSSQTSLSSKDLSNYRKTEGIFEKAKAKAVTSKVRNAEFKVSKNSTSFKNPRRLEIKDGRSLFLRNRGKIHSGVLSSIESDLKKREQASKSKKSWLNRLNNWLFGWNDLEGHHHHHH”: “soluble”. Take “MSLGAYLSSPKTNKESLDGGNLELDPSRYGLSCMQGWRKNMEDAHICYNNLKFNEIEEDVSIYGVFDGHGGPNVSKWISYNFRRIFIRCLKEANAGETGEDDCNGVYSSEELRLFENYYSNDYEDNIAYSCGSTALVAVILKGYLIVANAGDSRAIVCFNGNSLGMSTDHKPHLQTEEARIKKAGGYIANGRVDGNLNLTRAIGDLHYKRDPFLPQKDQKISAFPEITCVTLTPEDEFLFLACDGIWDCKDGQDVVGFVKTRLEKFEEIPDDPNNSLDNTENSEHMNTNNNSDQNEKLKSEEGHHHHHH”: the “soluble on expression in E. coli” value was “soluble”. Consider “MSLGDKKIRIRRTNEQLDKEVISEFEKLVGEFGFGNVNLSALMKAADLEANVFYRRYGSMDNLYDRLAKQYDFWINNTIDISTLNTLGPKKFFAETFKTLFRNLSENSVMQKLLLYEMTTINSTTKRSAETRDVMNLNLITFYENLFAPAKINIKSIASILIGGIYYLILHKECAKICTIDYKTKEGENAFSEGIDFLTDIIFDRLEMYDRDKKAIRQMISDGISESKICKYMGINKNDLKTLLSEGHHHHHH”, for which the “soluble on expression in E. coli” value was “soluble”. Consider “MSLGEHLEFDEKKIEKIMMIKRSYLNGEISLEEAKIKMQASFDQVTAQEFAICEQYLQKYGISDDVLAERMEEIIEIFDGVLVTTKLNLPSGHPIRTYLDEVDAIRRILGEMREMSKKKFIKNQWAQYYDQLGEINIHFARKQNQLFTALEKKGFDKPSKVMWTLDNNIRDMIKKAKEYLETDQDNAFLEIQDEVIEMVEDMMVKEEEILFPTTMDLLTDEDFIEMRKGDDEIGYCLIDSPLPYGKKENKDTDTSSNNELLKDLANVLQKHGMLTKASNDEVLDVSQGKLTLEQINLLFKHLQVDLSFVDENEIVKFYSDTKHRVFPRSAGVIGREVQNCHPRESVHTVEEIIRAFRAGEHDEAEFWLEMGGKFIYIIYNAVRDEDGNFKGVLEMMQDVTKIRSLTGSQRLLSWGDKEEEPKSKVTEHTGIENEYGITKETIIGDLVKEYPFIKEFLFNLSPKFSKLQNPIVFKTMSSIATVEMISEKGGFEVQDLIDRIVKEIQSRKEGHHHHHH”, for which the “soluble on expression in E. coli” value is reported as “soluble”. As to “MSLGIGKEAEVKKSFEKTLSMYPIKNLEDLYDKEGYRDDQFDKNDKGTWIINSEMVIQPNNEDMVAKGMVLYMNRNTKTTNGYYYVDVTKDEDEGKPHDNEKRYPVKMVDNKIIPTKEIKDKNIKKEIENFKFFVQYGNFKDLSKYKDGDISYNPEVPSYSAKYQVTNDDYNVKQLRKRYDIPTNKAPKLLLKGTGNLKGSSVGYKDIEFTFVEKKGENIYFSDSLHLEPSEDKEGHHHHHH”, the “soluble on expression in E. coli” value was “soluble”. The same measure for “MSLGKFLVEREQMRYPVDVYTGKIQAYPEGKPSAIAKIQVDGELMLTELGLEGDEQAEKKVHGGPDRALCHYPREHYLYWAREFPEQAELFVAPAFGENLSTDGLTESNVYMGDIFRWGEALIQVSQPRSPCYKLNYHFDISDIAQLMQNTGKVGWLYSVIAPGKVSADAPLELVSRVSDVTVQEAAAIAWHMPFDDDQYHRLLSAAGLSKSWTRTMQKRRLSGKIEDFSRRLWGKEGGSHHHHHH”: “soluble”.

Turning to “MSLGKMVIGFAHPDFNDMFLGFLLAGVQAYEAEQTNVEVVYVDAENDSDGQIAQVEDLIAQGVDAIMAIPVDLIATEFIVDRAQQAGVPVVLINRDSVEREDAYVGSDSLQAGTIQMEEVAAVLKGKGKIAIMNGQMGHTAQINRTLGNKQVVDQYPGMEVVIEGTGGWSREKGKELMESWIESGQTFDAVVANNDEMAIGAIMAAEEAGIVDELVFAGIDGTPDALDYMSKGKLTISVFQDAKGQGQTGLEQAIKLAKGESAEKMTNIPYETITKRNVDEGHHHHHH”, the “soluble on expression in E. coli” value is listed as “soluble”.

These data come from the DeepSol protein solubility set.
